Results as given in patent US20160145332A1 (MONASH UNIVERSITY, published 2016).

Key:
[1] = target: T1, Peptide 3 of hIL-21 (P3, 30aa) (human); test: ELISA: Peptide 3 coated on the plate, biotinylated 2P2 alone or spiked with Peptide 3, Streptavidin-HRP, TMB, A450
T1 peptide: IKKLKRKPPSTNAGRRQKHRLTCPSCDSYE

[2] = target: T2, human IL-21 (human, UniProt Q9HBE4 25-162, limits assumed); test: SPR (Bio-Rad XPR36), stated average of n=5 measurements; stated final affinity, average of n=5 (table 6)
T2 construct: also called hIL-21; full length hIL-21
Description: (§1) Surface Plasma Resonance binding kinetics assay were performed on a Bio-rad XPR36 system by the direct amine coupling method. Briefly, a flow of mixture of EDC [N-ethyl-N′-(3-[…]-propyl)carbodiimide] and NHS (N-hydroxysuccinimide) was used to activate the cell surface of a GLC sensor chip before 25 μg/ml anti-IL-21 mAb was flowed through, then a shot flow of ethanolamine was used to block the remaining active sites on the cell surface. Afterwards, serial diluted solutions of IL-21 from 0 to 40 nM were flown over the cell surface to bind to the immobilized anti-IL-21 mAb molecules. Binding kinetics were performed at 25° C. with a flow rate of 30 μL/min, association time of 3 min and dissociation time of 6 min. The buffer consisted of Hepes, NaCl, tween20, and 1 mg/mL BSA at pH 7.4. The flow cell regeneration buffer between cycles was 15 mM phosphoric acid. Double references were used to process the sensorgrams. The binding curves were globally fit to the 1:1 Langmuir binding model.

[3] = target: T3, Peptide 4 of hIL-21 (P4, 23aa) (human); test: ELISA, biotinylated antibody on coated peptide
T3 peptide: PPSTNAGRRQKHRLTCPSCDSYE
Description: (§2) To detect epitopes of 2P2 and 3A3, peptides consisting of different regions of hIL-21 were synthesized commercially and coated on an ELISA plate, followed by blocking of non-specific binding sites with 3% BSA in PBS. Biotinylated 2P2 or 3A3 were then added to the wells and developed with Streptavidin-HRP and TMB substrates.
(§3) An ELISA assay was used to examine binding between antibodies 2P2 and 3A3 and a Streptavidin-HRP secondary only control to each of the peptides P1 to P5, hIL-21 and OVA peptide. […] Thus, the epitope recognized by antibody 2P2 comprised a minimal sequence of 9 mer to 15 mer, with the core sequence being […] (SEQ ID NO 23). Binding was stronger with the sequence CPSCD was also present and strongest binding was observed when the sequences IKKLK, CPSCD and […] were present.

[4] = target: T4, Peptide 5 of hIL-21 (P5, 15aa) (human); test: ELISA, biotinylated antibody on coated peptide
T4 peptide: PPSTNAGRRQKHRLT
Description: as §2, §3

[5] = target: mIL21 (Mus musculus, UniProt Q9ES17); test: ELISA: mouse IL-21 coated on the plate, biotinylated 2P2 alone or spiked with Peptide 3, Streptavidin-HRP, TMB, A450
[6] = target: T5, P2; test: peptide ELISA: peptide coated on the plate, biotinylated antibody, Streptavidin-HRP, TMB, A450
T5 construct: also called Peptide 2 (P2, 27aa); peptide 2 of hIL-21
T5 peptide: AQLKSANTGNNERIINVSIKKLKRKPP

[7] = target: T6, P1; test: as above
T6 construct: also called Peptide 1 (P1, 30aa); peptide 1 of hIL-21

[8] = target: T2, human IL-21; test: SPR (Bio-Rad XPR36), average of the five wells of Table 6; mean of the five single KDs, SD 0.74x10^-9
Description: as §1

[9] = target: T2, human IL-21; test: cell-based or functional assay

T2 sequence (Q9HBE4 25-162 limits assumed): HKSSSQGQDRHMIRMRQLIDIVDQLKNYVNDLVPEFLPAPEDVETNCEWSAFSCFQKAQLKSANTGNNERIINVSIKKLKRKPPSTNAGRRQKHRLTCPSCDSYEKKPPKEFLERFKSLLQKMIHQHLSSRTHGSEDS
T6 sequence (peptide, as listed by the source): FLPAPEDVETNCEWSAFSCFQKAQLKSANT

B1: monoclonal antibody 2P2 (antibody, V domains shown)
VH: EVQLQQSGADLVRSGASVKLSCTASGFNIKDYYIHWVKQRPEQGLELIGWIDPESGDTEYAPKFQVKATMTADTSSNTAYLQLSSLTSEDTAVYYCNDGSGYWGQGTTLTVSS
VL: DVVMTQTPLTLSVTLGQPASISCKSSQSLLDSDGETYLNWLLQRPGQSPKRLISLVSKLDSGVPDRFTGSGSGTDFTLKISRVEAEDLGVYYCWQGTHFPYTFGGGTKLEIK
notes: It was biotinylated in the ELISA assays and unlabelled, amine-coupled to the chip, in SPR; also called mAb 2P2; mAB 2P2
B1 was tested, and the binding result [1] was “binds”, the Kd [2] was 3 nM and the binding result [3] was “binds”. B1: binds [4]; no binding [5]; no binding [6]. The binding result [7] was “no binding”, the Kd [8] was 3.33 nM and the “bioactivity of human IL-21 on Ba/F3-hIL-21R cell proliferation at 10 µg/ml 2P2” value [9] was > 10 fold. The “hIL-21 bioactivity on human CD8 T cell activation (granzyme B and perforin)” value [9] was > 10 fold and the “hIL-21 mediated human B cell proliferation (CFSE dilution); 5 ng/ml hIL-21 plus 1 µg/ml 2P2 compared with 100 ng/ml hIL-21” value [9] was ~20 fold.
